Test results as given in patent US20250011430A1 (GUANGZHOU BIO GENE TECHNOLOGY, published 2025).

T1: B7H3 on cells (B7H3 on HEK293 cells; B7H3 expressed from plasmid on HEK-293T and QT6 cells) (human, UniProt Q5ZPR3 29-534)
T1 construct: whole, on cells; also called HEK293 B7H3 proteins; human B7H3
T1 sequence (looked up): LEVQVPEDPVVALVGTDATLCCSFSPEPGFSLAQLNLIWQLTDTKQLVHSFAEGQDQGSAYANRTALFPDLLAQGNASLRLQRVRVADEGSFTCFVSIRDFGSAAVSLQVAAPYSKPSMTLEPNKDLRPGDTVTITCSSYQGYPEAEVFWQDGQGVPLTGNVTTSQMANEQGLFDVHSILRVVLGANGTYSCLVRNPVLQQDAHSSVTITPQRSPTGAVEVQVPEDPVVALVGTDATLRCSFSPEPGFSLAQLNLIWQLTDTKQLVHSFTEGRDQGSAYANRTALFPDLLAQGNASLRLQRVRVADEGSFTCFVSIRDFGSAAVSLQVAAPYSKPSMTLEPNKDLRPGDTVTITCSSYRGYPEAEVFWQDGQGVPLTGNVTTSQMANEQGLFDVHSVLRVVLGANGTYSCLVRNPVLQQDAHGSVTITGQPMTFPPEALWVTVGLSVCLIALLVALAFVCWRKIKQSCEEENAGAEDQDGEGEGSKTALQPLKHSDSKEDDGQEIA


Tests used:
[1] = molecular target: T1, B7H3 on cells (B7H3 on HEK293 cells; …); test: flow cytometry on HEK293 cells, FITC-labelled secondary antibody; y axis without title
Description: 5×10⁵ HEK293 cells were resuspended with PBS+5% BSA and incubated for 30 min at 4° C. Different concentrations of antibody (1 μg/mL to 0.01 μg/mL, 10-fold gradient dilution) were added and incubated for 60 min at 4° C. After centrifugation and washing, a PBS+5% BSA solution containing an FITC-labeled secondary antibody (1:200, sigma, F9512) was added and incubated on ice for 30 min in the dark. Cells were washed three times before the flow cytometry analysis.
Using the flow cytometry method, the control antibodies (huM30, Eno) and the 2B8, 26B8, 23H1 and 6F7 antibody were tested for their binding abilities to HEK293 B7H3 proteins at a final concentration of 1 μg/mL, 0.1 μg/mL and 0.01 μg/mL, respectively. Compared with the control antibodies, the 2B8, […], 23H1 and 6F7 antibody each have the same or better binding ability to the HEK293 B7H3 proteins.

[2] = molecular target: T1, B7H3 on cells (B7H3 on HEK293 cells; …); test: flow cytometry on HEK293 cells (text value, conflicts with Table 2)
Description: (§1) 2×10⁵ HEK293 cells were resuspended with PBS+5% BSA and incubated for 30 min at 4° C. Different concentrations of humanized antibody (5 μg/mL to 0.002286 μg/mL, 3-fold gradient dilution) were added and incubated for 60 min at 4° C. After centrifugation and washing, a PBS+5% BSA solution containing an FITC-labeled secondary antibody (1:200, sigma, F9512) was added and incubated on ice for 30 min in the dark. Cells were washed three times before the flow cytometry analysis. EC50 was calculated using GraphPad software.

[3] = molecular target: T1, B7H3 on cells (B7H3 on HEK293 cells; …); test: flow cytometry on HEK293 cells
Description: as §1

Binder	binding result [1]	EC50 [2] [µg/mL]	EC50 [3] [µg/mL]
anti-B7H3 antibody 23H1 (antibody, V domains shown) VH: EVKLVESGGGLVQPGGSLRLSCATSGFTFTDYYMSWVRQPPGKALEWLGFIRNKVNDYTTEYSVSVKGRFTISRDNSQTILYLQMNTLRAEDSATYYCARDSPYRPFAYWGQGTLVTVSA VL: DIVMTQSPSSLTVTAGENVTMSCKSSQTLLNNGNQKNFLTWYQQKPGQPPKLLIYLASTRESGVPDRFTGSGSGTDFTLTISSVQAEDLAVYYCQNDYTYPLTFGAGTKLELKR	binds		
chimeric antibody ch6F7 (antibody, V domains shown) VH: EVKLVESGGGLVQPGGSLRLSCATSGFTFTDYYMSWVRQPPGKALEWLGFIRNKANGYTTEYSASVKGRFTISSDDSQSILYLQMNTLRAEDSATYYCARDSHYRPFAYWGQGTLVTVSA VL: DIQMTQSPSSLTVTAGEKVTMSCKSSQSLLNSGNQNNYLTWYQQKPGQPPKLLIYLASTRDSGVPDRFTGSGSGTDFTLTISSVQAEDLAVYYCQNDYTYPLTFGAGTKLELKR		0.224	
humanized 2B8 (antibody, V domains shown, also called hz2B8; h2B8) VH: QVQLVQSGAEVKKPGASVKVSCKVSGYTFTDGAMHWVRQAPGQGLEWIGIINTNSGNTNYNQKFQGRVTMTRDTSISTAYMELSRLRSEDTAVYYCARGVFYYGYGAWFAYWGQGTLVTVSS VL: DIQLTQSPSFLSASVGDRVTINCRASKTISNYLAWYQQKPGKAPKLLIYSGSTLQSGVPSRFSGSGSGTDFTLTISSLQPEDFATYYCQQHHEYPLTFGGGTKVEIKR			0.0779
humanized 26B6 (antibody, V domains shown, also called hz26B6; h26B6) VH: EVQLVQSGAEVKKPGASVKVSCKASGYTFTEYTMHWVRQAPGQGLEWIGGINPNTGGTTYNQKFNGRVTMTRDTSISTAYMELSSLRSEDTAVYYCTRPYRDDGGFHWYFDVWGQGTLVTVSS VL: EIVLTQSPATLSLSPGERATLSCSASSSVSYMQWYQQKPGLAPRLLIYDTSKLTSGIPDRFSGSGSGTDFTLTISRLEPEDFAVYYCQQWSSNPLTFGGGTKVEIKR			0.306
chimeric antibody ch26B6 (antibody, V domains shown) VH: EVQLQQSGPELVKPGASVKISCKTSGYAFTEYTMHWVKQSQGKSLEWIGGINPNTGGTTYNQKFNGKATLTVDRSSSTAYMELRSLTSEDSAVYYCTRPYRDDGGFHWYFDVWGAGTAVTVSS VL: QIVLTQSPAVMSTSPGEKVTMTCSASSSVSYMQWYQQKSGTSPKRWIYDTSKLTSGVPARFSGSGSGTSYSLTISSMEAEDAATYYCQQWSSNPLTFGAGTKLELKR		0.232	0.224
chimeric antibody ch2B8 (antibody, V domains shown) VH: QVQLQQSGPELVRPGVSVKISCKVSGYTFTDGAMHWVKRSHAKSLEWIGIINTNSGNTNYNQKFQGKATMTVDKSSSTAYMELARLTSEDSAIYYCARGVFYYGYGAWFAYWGQGTLVTVSA VL: DVQITQSPSYLTASPGETIIINCRASKTISNYLAWYQEKPGKTNKLLIYSGSTLQSGIPSRFSGSGSDTDFTLTISSLEPEDFAMYYCQQHHEYPLTFGAGTKLELKR			0.132
humanized 6F7 with light chain variable region LV1 (antibody, V domains shown, also called hz6F7L1; h6F7H1L1) VH: EVQLVESGGGLVQPGGSLRLSCAASGFTFTDYYMSWVRQAPGKGLEWVAFIRNKANGYTTEYSASVKGRFTISRDDSKNSLYLQMNSLRAEDTAVYYCARDSHYRPFAYWGQGTLVTVSS VL: DIVMTQSPLSLPVTPGEPASISCKSSQSLLNSGNQNNYLTWYLQKPGQSPQLLIYLASTRDSGVPDRFSGSGSGTDFTLKISRVEAEDVGVYYCQNDYTYPLTFGGGTKVEIKR			0.604
humanized 6F7 with light chain variable region LV2 (antibody, V domains shown, also called hz6F7L2; h6F7H1L2) VH: EVQLVESGGGLVQPGGSLRLSCAASGFTFTDYYMSWVRQAPGKGLEWVAFIRNKANGYTTEYSASVKGRFTISRDDSKNSLYLQMNSLRAEDTAVYYCARDSHYRPFAYWGQGTLVTVSS VL: DIVMTQSPDSLAVSLGERATINCKSSQSLLNSGNQNNYLTWYQQKPGQPPKLLIYLASTRDSGVPDRFSGSGSGTDFTLTISSLQAEDVAVYYCQNDYTYPLTFGGGTKVEIKR			0.41
